In PMC10639101:

What follows are substances tested against SecYEG labeled at SecY residue 292 with AF488 (E. coli) (UniProt P0AGA2) (assay: FRET or BRET).
With “SecA-PhoA chimera labeled at PhoA residue 45 with AF647” the FRET efficiency was 0.3.
Substance “SecA-PhoA chimera labeled at PhoA residue 37 with AF647” has an FRET efficiency of 0.24.
Substance “SecA-PhoA chimera labeled at PhoA residue 22 with AF647” has an FRET efficiency of 0.46.
Work on “SecA-PhoA chimera labeled at PhoA residue 2 with AF647” yielded an FRET efficiency of 0.25.
